The target in data set [1] is TdT (murine terminal deoxynucleotidyl transferase, single cysteine at position 182, conjugated to dNTP via amino acid ester linker) (Mus musculus) (UniProt P09838). To be noted: hydroxymethyl scar on 3'-terminal T base; dTTP ester-linker conjugate; same yield as natural unscarred primer.
Data set [2] has the same target. Put plainly: EMSA. To be noted: Linker 1 or 2 dTTP conjugate, 60 s; covalent primer-extension complex on SDS-PAGE gel shift.

Drawing on patent US20260132223, this text covers activity (% extension in 1 s) and activity for two substances.

Some results are limits rather than exact numbers.

Sequence of TdT (murine terminal deoxynucleotidyl transferase, single cysteine at position 182, conjugated to dNTP via amino acid ester linker) (Mus musculus) (P09838 other isoform, or with tags, fused parts or gaps): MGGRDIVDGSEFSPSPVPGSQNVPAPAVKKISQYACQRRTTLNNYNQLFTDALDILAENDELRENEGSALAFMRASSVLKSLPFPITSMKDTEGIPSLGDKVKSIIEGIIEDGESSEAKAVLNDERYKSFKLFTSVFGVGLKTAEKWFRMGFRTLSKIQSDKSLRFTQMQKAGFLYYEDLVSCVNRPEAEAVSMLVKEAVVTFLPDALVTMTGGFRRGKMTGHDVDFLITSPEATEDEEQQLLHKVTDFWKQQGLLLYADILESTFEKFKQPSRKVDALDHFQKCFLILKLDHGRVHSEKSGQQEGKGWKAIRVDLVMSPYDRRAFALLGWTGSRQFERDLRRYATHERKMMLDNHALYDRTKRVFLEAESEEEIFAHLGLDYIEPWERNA

With “primer with 3'-terminal hydroxymethyl-scarred dT”, the activity (% extension in 1 s) in data set [1] amounted to 35.

ssDNA primer: in data set [2], the activity was more than 95 % extension.
